According to the supplement of paper PMC9116672:
± gives the standard deviation of the averaged measurements or the uncertainty stated by the source.

Key:
[1] = duplex melting temperature (HRM, EvaGreen); higher = more stable duplex
Experimental: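 Listed DNA strand annealed 1:1 with its complementary strand (95 °C 5 min, 0.1 °C/s to 20 °C). Melted in 1x NNE buffer (500 mM NaCl, 10 mM Na2HPO4, 1 mM EDTA, pH 7.0) with 1x EvaGreen on a LightCycler96 (37 to 97 °C, 0.1 °C/s). Tm is the peak of -dF/dT at the stated total duplex concentration; 4 replicates are averaged. PS oligos are non-stereospecific (Rp/Sp mixtures).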

[2] = duplex formation free energy ΔG50 (Van't Hoff fit of HRM Tm); higher = less stable duplex; settings: temperature for dG: 50 °C, NaCl: 500 mM (unadjusted)
Experimental: (§1)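 Duplex of the listed DNA strand with its complement, in 1x NNE buffer (500 mM NaCl, pH 7.0) with 1x EvaGreen. ΔH and ΔS come from a Van't Hoff linear fit of 1/Tm against ln(CT/4) over 1-20 uM, using HRM Tm values.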

[3] = duplex formation enthalpy ΔH (Van't Hoff fit of HRM Tm); higher = less exothermic duplex formation; settings: temperature for dG: 50 °C, NaCl: 500 mM (unadjusted)
Experimental: as §1

[4] = duplex formation entropy ΔS (Van't Hoff fit of HRM Tm); higher = smaller entropy loss on duplex formation; settings: temperature for dG: 50 °C, NaCl: 500 mM (unadjusted)
Experimental: as §1

[5] = duplex concentration 1 µM, backbone: PS-PO (listed strand fully phosphorothioate, complement phosphodiester)
[6] = duplex concentration 1 µM, backbone: PS-PS (both strands fully phosphorothioate)
[7] = duplex concentration 2.5 µM, backbone: PO-PO (both strands phosphodiester DNA)
[8] = duplex concentration 2.5 µM, backbone: PS-PO (listed strand fully phosphorothioate, complement phosphodiester)
[9] = duplex concentration 2.5 µM, backbone: PS-PS (both strands fully phosphorothioate)
[10] = duplex concentration 5 µM, backbone: PO-PO (both strands phosphodiester DNA)
[11] = duplex concentration 5 µM, backbone: PS-PO (listed strand fully phosphorothioate, complement phosphodiester)
[12] = duplex concentration 5 µM, backbone: PS-PS (both strands fully phosphorothioate)
[13] = duplex concentration 7.5 µM, backbone: PO-PO (both strands phosphodiester DNA)
[14] = duplex concentration 7.5 µM, backbone: PS-PO (listed strand fully phosphorothioate, complement phosphodiester)
[15] = duplex concentration 7.5 µM, backbone: PS-PS (both strands fully phosphorothioate)
[16] = duplex concentration 10 µM, backbone: PO-PO (both strands phosphodiester DNA)
[17] = duplex concentration 10 µM, backbone: PS-PO (listed strand fully phosphorothioate, complement phosphodiester)
[18] = duplex concentration 10 µM, backbone: PS-PS (both strands fully phosphorothioate)
[19] = duplex concentration 15 µM, backbone: PO-PO (both strands phosphodiester DNA)
[20] = duplex concentration 15 µM, backbone: PS-PO (listed strand fully phosphorothioate, complement phosphodiester)
[21] = duplex concentration 15 µM, backbone: PS-PS (both strands fully phosphorothioate)
[22] = duplex concentration 20 µM, backbone: PO-PO (both strands phosphodiester DNA)
[23] = duplex concentration 20 µM, backbone: PS-PO (listed strand fully phosphorothioate, complement phosphodiester)
[24] = duplex concentration 20 µM, backbone: PS-PS (both strands fully phosphorothioate)
[25] = backbone: PO-PO (both strands phosphodiester DNA)
[26] = backbone: PS-PO (listed strand fully phosphorothioate, complement phosphodiester)
[27] = backbone: PS-PS (both strands fully phosphorothioate)
[28] = duplex concentration 1 µM, backbone: PO-PO (both strands phosphodiester DNA)

Question: Which duplex melting temperature [1, 5] does the source give for GCCCGAGCATGACTGCG here?
Answer: 65.4 ± 0.24 °C

Question: And the duplex melting temperature [1, 6]?
Answer: 59.02 ± 0.17 °C

Question: And the duplex melting temperature [1, 7]?
Answer: 75.41 ± 0.19 °C

Question: What about the duplex melting temperature [1, 8] of the same sequence?
Answer: 68.14 ± 0.36 °C

Question: What about the duplex melting temperature [1, 9] of the same sequence?
Answer: 61.59 ± 0.3 °C

Question: What about the duplex melting temperature [1, 10] of the same sequence?
Answer: 76.97 ± 0.085 °C

Question: And the duplex melting temperature [1, 11]?
Answer: 70 ± 0.11 °C

Question: What about the duplex melting temperature [1, 12] of the same sequence?
Answer: 63.37 ± 0.21 °C

Question: What about the duplex melting temperature [1, 13] of the same sequence?
Answer: 77.92 ± 0.1 °C

Question: And the duplex melting temperature [1, 14]?
Answer: 71.104 ± 0.068 °C

Question: And the duplex melting temperature [1, 15]?
Answer: 64.41 ± 0.16 °C

Question: What about the duplex melting temperature [1, 16] of the same sequence?
Answer: 78.54 ± 0.1 °C

Question: And the duplex melting temperature [1, 17]?
Answer: 71.926 ± 0.031 °C

Question: What about the duplex melting temperature [1, 18] of the same sequence?
Answer: 65.09 ± 0.084 °C

Question: What about the duplex melting temperature [1, 19] of the same sequence?
Answer: 79.72 ± 0.12 °C

Question: And the duplex melting temperature [1, 20]?
Answer: 73.02 ± 0.13 °C

Question: And the duplex melting temperature [1, 21]?
Answer: 66.12 ± 0.12 °C

Question: And the duplex melting temperature [1, 22]?
Answer: 80.63 ± 0.26 °C

Question: What about the duplex melting temperature [1, 23] of the same sequence?
Answer: 73.82 ± 0.14 °C

Question: And the duplex melting temperature [1, 24]?
Answer: 66.8 ± 0.27 °C

Question: What about the “duplex formation free energy ΔG50” value [2, 25] of the same sequence?
Answer: -16.3 ± 0.36 kcal/mol

Question: And the “duplex formation free energy ΔG50” value [2, 26]?
Answer: -13.6 ± 0.11 kcal/mol

Question: And the “duplex formation free energy ΔG50” value [2, 27]?
Answer: -12.16 ± 0.1 kcal/mol

Question: And the “duplex formation enthalpy ΔH” value [3, 25]?
Answer: -98.8 ± 4.5 kcal/mol

Question: And the “duplex formation enthalpy ΔH” value [3, 26]?
Answer: -83.7 ± 1.9 kcal/mol

Question: What about the “duplex formation enthalpy ΔH” value [3, 27] of the same sequence?
Answer: -86.9 ± 2.4 kcal/mol

Question: And the “duplex formation entropy ΔS” value [4, 25]?
Answer: -255 ± 13 cal/mol/K

Question: What about the “duplex formation entropy ΔS” value [4, 26] of the same sequence?
Answer: -217 ± 5.5 cal/mol/K

Question: And the “duplex formation entropy ΔS” value [4, 27]?
Answer: -231 ± 7.1 cal/mol/K

Question: Which results are given for GAGCAGAAGGGGTTGT?
Answer: duplex melting temperature [1, 28]: 63.5 ± 1.7 °C; duplex melting temperature [1, 5]: 58.19 ± 0.23 °C; duplex melting temperature [1, 6]: 49.7 ± 0.9 °C; duplex melting temperature [1, 7]: 66.19 ± 0.54 °C; duplex melting temperature [1, 8]: 60.88 ± 0.2 °C; duplex melting temperature [1, 9]: 53.7 ± 0.54 °C; duplex melting temperature [1, 10]: 68.16 ± 0.65 °C; duplex melting temperature [1, 11]: 63.08 ± 0.15 °C; duplex melting temperature [1, 12]: 55.97 ± 0.26 °C; duplex melting temperature [1, 13]: 69.5 ± 0.73 °C; duplex melting temperature [1, 14]: 64.37 ± 0.09 °C; duplex melting temperature [1, 15]: 57.22 ± 0.19 °C; duplex melting temperature [1, 16]: 70.88 ± 0.2 °C; duplex melting temperature [1, 17]: 65.29 ± 0.073 °C; duplex melting temperature [1, 18]: 57.97 ± 0.097 °C; duplex melting temperature [1, 19]: 72.362 ± 0.008 °C; duplex melting temperature [1, 20]: 66.57 ± 0.019 °C; duplex melting temperature [1, 21]: 59.215 ± 0.054 °C; duplex melting temperature [1, 22]: 73.62 ± 0.15 °C; duplex melting temperature [1, 23]: 67.52 ± 0.11 °C; duplex melting temperature [1, 24]: 60.08 ± 0.23 °C; duplex formation free energy ΔG50 [2, 25]: -12.4 ± 0.17 kcal/mol; duplex formation free energy ΔG50 [2, 26]: -11.48 ± 0.05 kcal/mol; duplex formation free energy ΔG50 [2, 27]: -9.823 ± 0.063 kcal/mol; duplex formation enthalpy ΔH [3, 25]: -68.3 ± 2.9 kcal/mol; duplex formation enthalpy ΔH [3, 26]: -70.9 ± 1.2 kcal/mol; duplex formation enthalpy ΔH [3, 27]: -63.9 ± 2.9 kcal/mol; duplex formation entropy ΔS [4, 25]: -173 ± 8.6 cal/mol/K; duplex formation entropy ΔS [4, 26]: -184 ± 3.5 cal/mol/K; duplex formation entropy ΔS [4, 27]: -167 ± 8.8 cal/mol/K

Question: What does the source list for TAATTATACGAGTAGTTTCTGTCCTG?
Answer: duplex melting temperature [1, 28]: 71.48 ± 0.47 °C; duplex melting temperature [1, 5]: 62.1 ± 1.3 °C; duplex melting temperature [1, 6]: 53.5 ± 0.9 °C; duplex melting temperature [1, 7]: 72.48 ± 0.47 °C; duplex melting temperature [1, 8]: 63.7 ± 0.66 °C; duplex melting temperature [1, 9]: 55.8 ± 0.57 °C; duplex melting temperature [1, 10]: 73.57 ± 0.43 °C; duplex melting temperature [1, 11]: 65.23 ± 0.59 °C; duplex melting temperature [1, 12]: 57.27 ± 0.51 °C; duplex melting temperature [1, 13]: 74.63 ± 0.29 °C; duplex melting temperature [1, 14]: 65.94 ± 0.5 °C; duplex melting temperature [1, 15]: 58.41 ± 0.21 °C; duplex melting temperature [1, 16]: 75.37 ± 0.084 °C; duplex melting temperature [1, 17]: 66.63 ± 0.26 °C; duplex melting temperature [1, 18]: 59.23 ± 0.13 °C; duplex melting temperature [1, 19]: 76.277 ± 0.049 °C; duplex melting temperature [1, 20]: 67.43 ± 0.14 °C; duplex melting temperature [1, 21]: 60.07 ± 0.12 °C; duplex melting temperature [1, 22]: 77.05 ± 0.094 °C; duplex melting temperature [1, 23]: 67.855 ± 0.049 °C; duplex melting temperature [1, 24]: 60.84 ± 0.17 °C; duplex formation free energy ΔG50 [2, 25]: -17.6 ± 0.68 kcal/mol; duplex formation free energy ΔG50 [2, 26]: -13.9 ± 0.21 kcal/mol; duplex formation free energy ΔG50 [2, 27]: -10.75 ± 0.039 kcal/mol; duplex formation enthalpy ΔH [3, 25]: -127 ± 9.7 kcal/mol; duplex formation enthalpy ΔH [3, 26]: -115 ± 4.5 kcal/mol; duplex formation enthalpy ΔH [3, 27]: -89.9 ± 1.6 kcal/mol; duplex formation entropy ΔS [4, 25]: -340 ± 28 cal/mol/K; duplex formation entropy ΔS [4, 26]: -312 ± 13 cal/mol/K; duplex formation entropy ΔS [4, 27]: -245 ± 4.8 cal/mol/K

Question: Which duplex melting temperature [1, 28] does the source give for ATAACTTACTCTCGCCT here?
Answer: 63.6 ± 0.52 °C

Question: What about the duplex melting temperature [1, 5] of the same sequence?
Answer: 53.9 °C

Question: And the duplex melting temperature [1, 6]?
Answer: 47.36 ± 0.27 °C

Question: What about the duplex melting temperature [1, 7] of the same sequence?
Answer: 65.26 ± 0.45 °C

Question: What about the duplex melting temperature [1, 8] of the same sequence?
Answer: 56.75 ± 0.23 °C

Question: And the duplex melting temperature [1, 9]?
Answer: 50.73 ± 0.41 °C

Question: And the duplex melting temperature [1, 10]?
Answer: 67.07 ± 0.61 °C

Question: What about the duplex melting temperature [1, 11] of the same sequence?
Answer: 59 ± 0.16 °C

Question: What about the duplex melting temperature [1, 12] of the same sequence?
Answer: 53.03 ± 0.18 °C

Question: What about the duplex melting temperature [1, 13] of the same sequence?
Answer: 68.39 ± 0.58 °C

Question: What about the duplex melting temperature [1, 14] of the same sequence?
Answer: 60.21 ± 0.15 °C

Question: What about the duplex melting temperature [1, 15] of the same sequence?
Answer: 54.3 ± 0.082 °C

Question: And the duplex melting temperature [1, 16]?
Answer: 69.34 ± 0.46 °C

Question: What about the duplex melting temperature [1, 17] of the same sequence?
Answer: 61.01 ± 0.18 °C

Question: What about the duplex melting temperature [1, 18] of the same sequence?
Answer: 55.17 ± 0.085 °C

Question: What about the duplex melting temperature [1, 19] of the same sequence?
Answer: 70.85 ± 0.28 °C

Question: What about the duplex melting temperature [1, 20] of the same sequence?
Answer: 62.23 ± 0.12 °C

Question: And the duplex melting temperature [1, 21]?
Answer: 56.32 ± 0.24 °C

Question: What about the duplex melting temperature [1, 22] of the same sequence?
Answer: 72.01 ± 0.25 °C

Question: What about the duplex melting temperature [1, 23] of the same sequence?
Answer: 63.109 ± 0.04 °C

Question: What about the duplex melting temperature [1, 24] of the same sequence?
Answer: 57.138 ± 0.039 °C

Question: What about the “duplex formation free energy ΔG50” value [2, 25] of the same sequence?
Answer: -12.7 ± 0.29 kcal/mol

Question: And the “duplex formation free energy ΔG50” value [2, 26]?
Answer: -10.65 ± 0.042 kcal/mol

Question: And the “duplex formation free energy ΔG50” value [2, 27]?
Answer: -9.287 ± 0.031 kcal/mol

Question: What about the “duplex formation enthalpy ΔH” value [3, 25] of the same sequence?
Answer: -77.8 ± 5.4 kcal/mol

Question: What about the “duplex formation enthalpy ΔH” value [3, 26] of the same sequence?
Answer: -71.9 ± 1.4 kcal/mol

Question: And the “duplex formation enthalpy ΔH” value [3, 27]?
Answer: -64.9 ± 2.1 kcal/mol

Question: And the “duplex formation entropy ΔS” value [4, 25]?
Answer: -201 ± 16 cal/mol/K

Question: And the “duplex formation entropy ΔS” value [4, 26]?
Answer: -190 ± 4 cal/mol/K

Question: What about the “duplex formation entropy ΔS” value [4, 27] of the same sequence?
Answer: -172 ± 6.5 cal/mol/K
